Laboratory results: patent US9976167B2, “Group of glycosyltransferases and use thereof” (Shanghai Institutes For Biological Sciences, Chinese …, priority 2012, dated 2018)

Key:
Type in all cases: biochemical
[1] = Glycosyltransfering reaction with crude enzyme, substrate PPD; details: UDP-glucose, 35° C., 12 hrs, TLC; for substrate that could be catalyzed: PPD: crude enzyme: lysate supernatant of recombinant E. coli
Experimental: (§1) The lysate supernatant of the recombinant yeasts expressing the empty vector was used as control.
(§2) The reaction was conducted under 35° C. for 12 hrs, then stopped by adding 100 μL of butanol. The product were extracted, dried in vacuum, and dissolved in methanol.
(§3) The reaction products were first detected by thin layer chromatography (TLC).
(§4) The converted products of gGT25 were further identified by HPLC (FIG. 10 and FIG. 11). The retention time of peak 2 was identical to that of the CK standard sample; the retention time of peak 3 was identical to that of PPD. […] Peak 1, also present in the profile of the negative control, indicated its irrelevance to the conversion of PPD. 3 peaks were shown in FIG. 11, the retention time of peak 1 was identical to that of F1 standard sample and peak 3 was identical to that of PPT. […] Peak 2, also present in the profile of the negative control, indicated its irrelevance to the conversion of PPT.
(§5) According to the method as in Example 4, the cell lysate of recombinant yeasts expressing gGT13 and gGT30 were used to catalyze PPD and PPT.
The cell lysis supernatant of the recombinant E. coli was used as crude enzyme to conduct the glycosyltransfering reaction, and the reaction condition was identical to that of Example 4.
The reaction was conducted under 35° C. for 12 hrs. 100 μL of butanol was added to stop the reaction and the products were extracted. Upon vacuum drying, the product was dissolved by methanol. TLC was first used to detect the reaction product.
(§6) The glycosyltransfering reactions of ginsenosides and ginsengenins were catalyzed by using the lysis supernatant of the recombinant yeasts expressing 3GT1, 3GT2, 3GT3 and 3GT4 as crude enzymes. The lysis supernatant of recombinant E. coli expressing empty vectors was used as control. The 100 μL reaction system is shown as Table 3. The reaction was conducted under 35° C. for 12 hrs, then stopped by adding 100 μL of butanol. The product were extracted, dried in vacuum, and dissolved in methanol.
The reaction was conducted under 35° C. for 12 hrs, and then stopped by adding 100 μL of butanol. The product were extracted, dried in vacuum, and dissolved in methanol. The reaction products were first detected by thin layer chromatography (TLC) (FIG. 35).

[2] = Glycosyltransfering reaction with crude enzyme, substrate PPT; details: 35° C., 12 hrs, TLC; for glycosylation of C3-OH of PPT (product 3-O-β-(D-glucopyranosyl)-PPT): crude enzyme of Example 11
Experimental: as §1, §2, §3, §4, §5, §6

[3] = Glycosyltransfering reaction with crude enzyme, substrate CK; details: 35° C., 12 hrs, TLC; for glycosylation of C3-OH of CK (product F2): crude enzyme of Example 11
Experimental: as §5, §6

[4] = Glycosyltransfering reaction with crude enzyme, substrate 25-OH-PPD; details: 35° C., 12 hrs, TLC; for glycosylation of C3-OH of 25-OH-PPD (product 3-O-β-(D-glucopyranosyl)-25-OH-PPD): crude enzyme of Example 11; for substrate that could be catalyzed: 25-OH-PPD: crude enzyme: lysate supernatant of recombinant E. coli, UDP-glucose
Experimental: as §6

[5] = Glycosyltransfering activities on ginsengenins and saponins: glycosylation site and specificity (summary); details: for substrate spectrum / specificity: comparison of 3GT1, 3GT2, 3GT3 and 3GT4, Table 6
How it was run: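 Crude enzymes were lysate supernatants of recombinant yeast expressing 3GT1, 3GT2, 3GT3 or 3GT4, with empty-vector lysate as control. Reactions ran at 35° C for 12 hrs and were stopped with butanol; products were extracted, dried in vacuum and dissolved in methanol.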

[6] = Glycosyltransfering reaction with crude enzyme, substrate PPT; details: crude enzyme: lysate supernatant of recombinant E. coli; UDP-glucose, 35° C., 12 hrs; TLC
[7] = Glycosyltransfering reaction with crude enzyme, substrate DM; details: 35° C., 12 hrs, TLC
Experimental: as §1, §2, §3, §6

[8] = Glycosyltransfering reaction with crude enzyme, substrate F1; details: 35° C., 12 hrs, TLC
Experimental: as §5
The lysis supernatant of recombinant E. coli expressing empty vectors was used as control. The 100 μL reaction system is shown as Table 3. The reaction was conducted under 35° C. for 12 hrs, then stopped by adding 100 μL of butanol. The product were extracted, dried in vacuum, and dissolved in methanol.

[9] = Glycosyltransfering reaction with crude enzyme, substrate lanosterol; details: 35° C., 12 hrs, TLC
Experimental: as §6

[10] = Glycosyltransfering reaction with crude enzyme, substrate 20(R)-PPD; details: 35° C., 12 hrs, TLC
[11] = Glycosyltransfering reaction with crude enzyme, substrate Rh2; details: crude enzyme: lysate supernatant of recombinant yeast; UDP-glucose, 35° C., 12 hrs; TLC
[12] = Glycosyltransfering reaction with crude enzyme, substrate Rg3; details: crude enzyme: lysate supernatant of recombinant yeast; UDP-glucose, 35° C., 12 hrs; TLC
Experimental: as §1, §2
(§7) The reaction products were first detected by thin layer chromatography (TLC). […]

[13] = Glycosyltransfering reaction with crude enzyme, substrate Rh1; details: crude enzyme: lysate supernatant of recombinant yeast; UDP-glucose, 35° C., 12 hrs; TLC
Experimental: as §1, §2, §7

[14] = Glycosyltransfering reaction with crude enzyme, substrate Rg2; details: crude enzyme: lysate supernatant of recombinant yeast; UDP-glucose, 35° C., 12 hrs; TLC
Experimental: as §1, §2, §3

[15] = Glycosyltransfering reaction with crude enzyme, substrate Rf; details: crude enzyme: lysate supernatant of recombinant yeast; UDP-glucose, 35° C., 12 hrs; TLC
Experimental: as §1, §2, §3

[16] = Table 2, tetracyclic triterpenoid substrates
[17] = crude enzyme: lysate supernatant of recombinant E. coli, UDP-glucose
[18] = crude enzyme: lysate supernatant of recombinant yeast, UDP-glucose

B1: 3GT3: glycosyltransferase protein with 497 amino acids, SEQ ID NO.: 41; homology with a Medicago truncatula glycosyltransferase higher than 99% (protein, listed as Medicago truncatula)
chain: MEGVEVEQPLKVYFIPFLASGHMIPLFDIATMFASRGQQVTVITTPANAKSLTKSLSSDAPSFLRLHTVDFPSQQVGLPEGIESMSSTTDPTTTWKIHTGAMLLKEPIGDFIENDPPDCIISDSTYPWVNDLADKFQIPNITFNGLCLFAVSLVETLKTNNLLKSQTDSDSDSSSFVVPNFPHHITLCGKPPKVIGIFMGMMLETVLKSKALIINNFSELDGEECIQHYEKATGHKVWHLGPTSLIRKTAQEKSERGNEGAVNVHESLSWLDSERVNSVLYICFGSINYFSDKQLYEMACAIEASGHPFIWVVPEKKGKEDESEEEKEKWLPKGFEERNIGKKGLIIRGWAPQVKILSHPAVGGFMTHCGGNSTVEAVSAGVPMITWPVHGDQFYNEKLITQFRGIGVEVGATEWCTSGVAERKKLVSRDSIEKAVRRLMDGGDEAENIRLRAREFGEKAIQAIQEGGSSYNNLLALIDELKRSRDLKRLRDLKLDD
modifications: 3GT3
- substrate that could be catalyzed: PPD [1]: ✓
- glycosylation of C3-OH of PPT (product 3-O-β-(D-glucopyranosyl)-PPT) [2]: could be glycosylated
- glycosylation of C3-OH of CK (product F2) [3]: further glycosylating its C3-OH
- glycosylation of C3-OH of 25-OH-PPD (product 3-O-β-(D-glucopyranosyl)-25-OH-PPD) [4]: could be glycosylated
- substrate that could be catalyzed: 25-OH-PPD [4]: ✓
- glycosylation site: C-3 [5, 16]: ✓
- substrate spectrum / specificity [5]: least number of substrates
- substrate that could be catalyzed: PPT [6]: ✓

B2: 3GT1: glycosyltransferase protein with 495 amino acids, SEQ ID NO.: 22; homology with UGT73C10 of Barbarea vulgaris higher than 99% (protein, listed as Barbarea vulgaris)
chain: MVSEITHKSYPLHFVLFPFMAQGHMIPMVDIARLLAQRGVKITIVTTPHNAARFENVLSRAIESGLPISIVQVKLPSQEAGLPEGNETFDSLVSTKLLVPFFKAVNMLEEPVQKLFEEMSPQPSCIISDFCLPYTSKIAKKFNIPKILFHGMCCFCLLCMHVLRKNREILENLKSDKEHFVVPYFPDRVEFTRPQVPLATYVPGEWHEIKEDMVEADKTSYGVIVNTYQELEPAYANGYKEARSGKAWTIGPVSLCNKVGADKAERGNKADIDQDECLKWLDSKEEGSVLYVCLGSICSLPLSQLKELGLGLEESQRPFIWVVRGWEKNKELLEWFSESGFEERVKDRGLLIKGWSPQMLILAHHSVGGFLTHCGWNSTLEGITSGVPLLTWPLFGDQFCNQKLVVQVLKVGVSAGVEEVTNWGEEEKIGVLVDKEGVKKAVEELMGESDDAKEIRKRVKELGQLAHKAVEEGGSSHSNITSLLEDIMQLAQPNN
modifications: 3GT1
- substrate that could be catalyzed: PPD [1]: ✓
- glycosylation of C3-OH of PPT (product 3-O-β-(D-glucopyranosyl)-PPT) [2]: could be glycosylated
- glycosylation of C3-OH of DM (product 3-O-β-(D-glucopyranosyl)-Dammarenediol II) ([7]; crude enzyme of Example 11): could be glycosylated
- substrate that could be catalyzed: DM [7, 17]: ✓
- glycosylation of C3-OH of CK (product F2) [3]: further glycosylating its C3-OH
- substrate that could be catalyzed: CK [3, 17]: ✓
- glycosylation of C3-OH of F1 (product 3-O-β-(D-glucopyranosyl)-F1) ([8]; crude enzyme of Example 11): could be glycosylated
- substrate that could be catalyzed: F1 [8, 17]: ✓
- glycosylation of C3-OH of 25-OH-PPD (product 3-O-β-(D-glucopyranosyl)-25-OH-PPD) [4]: could be glycosylated
- substrate that could be catalyzed: 25-OH-PPD [4]: ✓
- glycosylation of C3-OH of lanosterol (product 3-O-β-(D-glucopyranosyl)-lanosterol) ([9]; crude enzyme of Example 11): could be glycosylated
- substrate that could be catalyzed: lanosterol [9, 17]: ✓
- catalysis of 20(R)-PPD (product 20(R)-ginsenoside Rh2) ([10]; crude enzyme of Example 11): could catalyze
- substrate that could be catalyzed: 20(R)-PPD [10, 17]: ✓
- effect of the steric configuration of the hydroxyl or glycosyl at C20 on catalytic activity ([5]; 20(S)-type versus 20(R)-type substrates): not affected
- glycosylation site: C-3 [5, 16]: ✓
- substrate spectrum / specificity [5]: most number of substrates
- substrate that could be catalyzed: PPT [6]: ✓

B3: gGT25-3: glycosyltransferase protein with 475 amino acids, SEQ ID NO.: 18 (protein)
chain: MKSELIFLPAPAIGHLVGMVEMAKLFISRHENLSVTVLIAKFYMDTGVDNYNKSLLTNPTPRLTIVNLPETDPQNYMLKPRHAIFPSVIETQKTHVRDIISGMTQSESTQVVGLLADLLFINIMDIANEFNVPTYVYSPAGAGHLGLAFHLQTLNDKKQDVTEFRNSDTELLVPSFANPVPAEVLPSMYVDKEGGYDYLFSLFRRCRESKAIIINTFEELEPYAINSLRMDSMIPPIYPVGPILNLNGDGQNSDEAAVILGWLDDQPPSSVVFLCFGSYGSFQENQVKEIAMGLERSGHRFLWSLRPSIPKGETKLQLKYSNLKEILPVGFLDRTSCVGKVIGWAPQVAVLGHESVGGFLSHCGWNSTLESVWCGVPVATWPMYGEQQLNAFEMVKELGIAVEIEVDYKKDYFNMKNDFIVRAEEIETKIKKLMMDENNSEIRKKVKEMKEKSRAAMSENGSSYNSLAKLFEEIM
modifications: Panax ginseng; gGT25-3
- glycosylation of C20-OH of PPD (product CK) ([1]; crude enzyme: lysate supernatant of recombinant yeast): glycosylated the C20-OH
- glycosylation of C6-OH of PPT (product Rg1 or Rh1) [2, 18]: C6-OH could be further glycosylated
- glycosylation of C20-OH of PPT (product F1) [2, 18]: glycosylated the C20-OH
- glycosylation of C20-OH of DM (product 20-O-β-(D-glucopyranosyl)-dammarendiol II) [7, 18]: could also glycosylate C20-OH
- glycosylation of C20-OH of Rh2 (product F2) [11]: further glycosylated at C20-OH
- glycosylation of C20-OH of Rg3 (product Rd) [12]: further glycosylated at C20-OH
- glycosylation of C20-OH of Rh1 [13]: could not be catalyzed
- glycosylation of C20-OH of Rg2 [14]: could not be catalyzed
- glycosylation of C20-OH of Rf [15]: could not be catalyzed
- glycosylation site: C6 [5, 16]: ✓
- glycosylation site: C20 [5, 16]: ✓
- extension of carbohydrate chain ([5]; crude enzyme: lysate supernatant of recombinant yeast, UDP-glucose, 35° C., 12 hrs, TLC): could not catalyze
